{"source": "patent US20240158497A1", "about": "(published 2024)", "binders": {"B1": {"name": "bsAb21236D (bispecific antibody, V domains shown)", "VH 1": "QVQLQESGPGLVKPSQTLSLTCTVSGGSISSGGDYWSWIRQLPGKGLEWIGYIYYSGSAYYNPSLKSRGTISIDTSKNQFSLKLTSVTAADTAVYFCVKLRFLEWFLGGWFGPWGQGTLVTVSS", "VH 2": "QVQLVESGGGLVKPGGSLRLSCAASGFTFSDYYMTWIRQTPGKGLDWVSYISSSGTNKYNADSVKGRFTISRDNAKNSLYLQMNSLRAEDTAVYYCVRDPPWGMDVWGQGTTVTVSS", "VL": "not shown", "notes": "LEPR x GP130 bispecific with common light chain; also called H4H21236D; bsAb21236 (LEPR × GP130)"}, "B2": {"name": "bsAb21237D (bispecific antibody, V domains shown)", "VH 1": "EVQLVESGGGLVQPGGSLRLSCAASGFTFSNYGMTWVRQAPGKGLEWVSAITGGGGSTYYSNSVKGRFTISRDNSKNTVYLRMNSVRAEDTAVYYCAKYKWNFVDDWGQGTTVTVSS", "VH 2": "QVQLVESGGGLVKPGGSLRLSCAASGFTFSDYYMTWIRQTPGKGLDWVSYISSSGTNKYNADSVKGRFTISRDNAKNSLYLQMNSLRAEDTAVYYCVRDPPWGMDVWGQGTTVTVSS", "VL": "not shown", "notes": "LEPR x GP130 bispecific with common light chain; also called H4H21237D; bsAb21237 (LEPR × GP130)"}}, "biological_target": "T1, full length human GP130 (L2V natural variant) on HEK293/Stat3-luc/gp130-2X Sort cells (human, UniProt P40189 23-918)", "T1 construct": "whole, on cells; Stably over-expressed on HEK293 cells, sorted twice for high expression; also called HEK293/gp130 2X Sort", "T1 sequence (looked up)": "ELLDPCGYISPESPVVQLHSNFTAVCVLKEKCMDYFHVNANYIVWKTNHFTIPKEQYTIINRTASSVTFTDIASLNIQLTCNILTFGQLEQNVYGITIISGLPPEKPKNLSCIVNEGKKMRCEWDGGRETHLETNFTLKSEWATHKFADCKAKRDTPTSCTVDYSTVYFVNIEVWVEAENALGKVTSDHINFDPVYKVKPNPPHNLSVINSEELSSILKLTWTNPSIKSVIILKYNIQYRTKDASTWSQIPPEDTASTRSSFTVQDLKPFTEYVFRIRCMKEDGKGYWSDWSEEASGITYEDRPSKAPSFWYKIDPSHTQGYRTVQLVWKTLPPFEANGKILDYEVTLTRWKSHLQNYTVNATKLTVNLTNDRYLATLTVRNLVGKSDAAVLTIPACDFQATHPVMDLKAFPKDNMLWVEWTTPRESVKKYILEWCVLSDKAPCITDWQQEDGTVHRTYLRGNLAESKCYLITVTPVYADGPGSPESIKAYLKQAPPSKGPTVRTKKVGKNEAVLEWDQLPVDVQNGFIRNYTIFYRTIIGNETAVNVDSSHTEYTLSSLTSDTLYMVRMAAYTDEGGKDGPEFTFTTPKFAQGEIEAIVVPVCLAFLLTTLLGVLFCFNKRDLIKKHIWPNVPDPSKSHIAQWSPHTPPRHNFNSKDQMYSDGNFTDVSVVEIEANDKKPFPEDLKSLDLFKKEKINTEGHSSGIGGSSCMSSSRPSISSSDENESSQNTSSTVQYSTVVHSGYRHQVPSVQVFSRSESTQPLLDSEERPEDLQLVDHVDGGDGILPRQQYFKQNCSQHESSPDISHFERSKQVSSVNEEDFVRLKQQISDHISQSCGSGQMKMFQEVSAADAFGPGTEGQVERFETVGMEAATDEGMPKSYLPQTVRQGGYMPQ", "assay": "FACS, 200 nM antibody on HEK293/gp130 2X Sort cells", "method": "For the FACS analysis, 0.5×10^6 cells/well of HEK293 parental cells, HEK293/Stat3-luc/gp130-2 X Sort cells, and HEK293/hLEPR-GPI cells, were incubated with 200 nM of the conventional antibodies against either GP130 or LEPR or with LEPRxGP130 bispecific antibodies, along with isotype control antibodies at 4° C. in PBS (without calcium and magnesium) containing 2% FBS.\nCells were fixed using BD CytoFix™ (Becton Dickinson, #554655) and analyzed on an IQue® (Intellicyt) Flow Cytometer. Unstained and secondary antibody alone controls were also tested for all cell lines. The results were analyzed using ForeCyt® (IntelliCyt) and FlowJo version 10 softwares to determine the geometric means of fluorescence for viable cells.", "data": [{"binder": "B1", "values": [{"measurement": "Binding Ratio, normalized to unstained sample (FL4-A)", "value": 132, "unit": "fold"}]}, {"binder": "B2", "values": [{"measurement": "Binding Ratio, normalized to unstained sample (FL4-A)", "value": 169, "unit": "fold"}]}]}
